Results as given in US20250101098A1 (R P SCHERER TECHNOLOGIES, published 2025).

Tests used:
[1] = molecular target: T1, human nectin-4 protein expressed on the surface of cells (human, UniProt Q96NY8 32-510); assay: cell-based or functional assay
[2] = molecular target: T1, human nectin-4 protein expressed on the …; assay: flow cytometry, HEK 293 cells overexpressing the target
Description: (§1) Human embryonic kidney (HEK) 293 cells overexpressing human, cynomolgus monkey, rat, or mouse nectin-4 protein were produced. Cells were lifted with Versene to preserve cell surface proteins and were resuspended at 10e6/mL in PBS+2% FBS. 100 μl was added to a flow tube to test […]. Primary antibodies were diluted to […] and 10 μL was added for a total of 1 μg/test. Primary antibodies (or ADCs) were incubated with cells for 1 h on ice. Then, cells were washed 1× in 2 mL PBS+2% FBS and secondary antibody was added for detection. AF488-conjugated anti-human antibody from Jackson Immunoresearch, diluted according to the manufacturer's instructions+50% glycerol, was used at 1 μL/test-diluted to ⅕ the concentration in PBS+2% FBS and 5 μL were added per tube. The secondary reagent was incubated with the cells for 30 min, then cells were washed 2× in PBS+2% FBS and analyzed by flow cytometry on a BD FacsCanto instrument equipped with FACSDiva software.
(§2) Lead clones were tested for binding to human, cynomolgus monkey, rat, or mouse nectin-4 protein expressed on the surface of HEK 293 cells. Enfortumab was included as a positive control and an anti-FITC reactive antibody was included as a negative control.

[3] = molecular target: T2, cynomolgus monkey nectin-4 protein expressed on the surface of HEK 293 cells (cynomolgus monkey, UniProt A0A2K5WES1 32-510); assay: as above
T2 construct: whole, on cells
T2 sequence: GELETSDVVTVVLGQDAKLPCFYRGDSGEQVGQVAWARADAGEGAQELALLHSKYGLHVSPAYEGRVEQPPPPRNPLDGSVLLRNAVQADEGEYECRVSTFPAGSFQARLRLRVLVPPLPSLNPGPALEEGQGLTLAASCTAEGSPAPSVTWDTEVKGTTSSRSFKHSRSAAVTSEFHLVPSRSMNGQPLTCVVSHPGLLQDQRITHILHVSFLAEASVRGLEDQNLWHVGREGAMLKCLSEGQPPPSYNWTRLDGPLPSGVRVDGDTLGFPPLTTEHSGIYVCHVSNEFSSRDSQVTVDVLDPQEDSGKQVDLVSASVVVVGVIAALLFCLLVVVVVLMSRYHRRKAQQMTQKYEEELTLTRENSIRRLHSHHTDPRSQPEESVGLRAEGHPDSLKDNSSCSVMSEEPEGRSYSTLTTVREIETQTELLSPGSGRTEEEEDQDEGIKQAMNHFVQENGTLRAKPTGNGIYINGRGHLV
Description: as §1, §2

[4] = molecular target: T3, rat nectin-4 protein expressed on the surface of HEK 293 cells (rat, UniProt D3ZET1 31-509); assay: as above
T3 construct: whole, on cells
T3 sequence: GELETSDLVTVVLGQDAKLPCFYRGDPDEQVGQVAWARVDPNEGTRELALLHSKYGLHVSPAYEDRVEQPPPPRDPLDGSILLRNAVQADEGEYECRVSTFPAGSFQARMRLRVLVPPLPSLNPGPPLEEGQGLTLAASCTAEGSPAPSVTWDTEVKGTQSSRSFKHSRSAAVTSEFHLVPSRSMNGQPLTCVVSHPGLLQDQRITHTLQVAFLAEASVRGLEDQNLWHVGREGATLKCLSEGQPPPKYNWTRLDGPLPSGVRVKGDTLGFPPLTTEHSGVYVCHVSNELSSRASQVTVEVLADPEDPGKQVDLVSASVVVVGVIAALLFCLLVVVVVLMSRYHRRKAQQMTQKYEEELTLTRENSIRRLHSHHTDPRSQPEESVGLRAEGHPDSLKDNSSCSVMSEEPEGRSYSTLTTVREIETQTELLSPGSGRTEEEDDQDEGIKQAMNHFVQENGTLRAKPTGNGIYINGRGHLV
Description: as §1, §2

[5] = molecular target: T4, mouse nectin-4 protein expressed on the surface of HEK 293 cells (mouse, UniProt Q8R007 31-508); assay: as above
T4 construct: whole, on cells
T4 sequence (looked up): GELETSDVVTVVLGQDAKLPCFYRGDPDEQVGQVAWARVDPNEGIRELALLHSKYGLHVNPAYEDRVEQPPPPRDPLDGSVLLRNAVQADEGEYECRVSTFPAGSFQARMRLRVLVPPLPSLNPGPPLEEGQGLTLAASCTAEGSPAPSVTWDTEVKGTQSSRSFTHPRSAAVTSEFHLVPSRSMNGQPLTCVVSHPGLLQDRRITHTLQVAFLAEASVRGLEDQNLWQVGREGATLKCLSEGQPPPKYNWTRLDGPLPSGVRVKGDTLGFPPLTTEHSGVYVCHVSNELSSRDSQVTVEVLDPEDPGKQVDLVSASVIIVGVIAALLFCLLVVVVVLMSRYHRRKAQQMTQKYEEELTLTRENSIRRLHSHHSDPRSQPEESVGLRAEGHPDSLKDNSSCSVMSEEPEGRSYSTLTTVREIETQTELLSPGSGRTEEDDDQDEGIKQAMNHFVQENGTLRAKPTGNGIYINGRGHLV
Description: as §1, §2

[6] = molecular target: T5, human nectin-4 protein expressed on the surface of cells (human, UniProt Q96NY8 32-510); assay: cell-based or functional assay; remark: listed apart in the source
T5 sequence: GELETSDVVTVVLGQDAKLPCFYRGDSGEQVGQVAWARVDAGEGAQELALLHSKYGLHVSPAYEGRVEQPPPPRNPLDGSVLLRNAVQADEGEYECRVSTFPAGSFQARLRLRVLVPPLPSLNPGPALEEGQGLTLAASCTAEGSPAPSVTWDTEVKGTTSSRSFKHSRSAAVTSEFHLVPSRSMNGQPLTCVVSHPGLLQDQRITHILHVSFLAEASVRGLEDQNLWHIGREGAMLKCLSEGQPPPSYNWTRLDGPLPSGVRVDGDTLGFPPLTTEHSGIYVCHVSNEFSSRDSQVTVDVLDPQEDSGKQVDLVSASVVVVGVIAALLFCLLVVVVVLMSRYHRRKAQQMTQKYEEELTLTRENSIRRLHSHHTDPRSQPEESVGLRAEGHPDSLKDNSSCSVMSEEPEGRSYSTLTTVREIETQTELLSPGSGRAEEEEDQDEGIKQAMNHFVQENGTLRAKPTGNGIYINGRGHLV

[7] = molecular target: T6, recombinant human Nectin-4-His protein (human, UniProt Q96NY8 32-349); assay: ELISA, recombinant antibody on coated antigen
T6 construct: Rescreening antigen and bought ELISA antigen are treated as one molecule; also called human Nectin-4-His tagged; Ag1; not shown: His tag
T6 sequence: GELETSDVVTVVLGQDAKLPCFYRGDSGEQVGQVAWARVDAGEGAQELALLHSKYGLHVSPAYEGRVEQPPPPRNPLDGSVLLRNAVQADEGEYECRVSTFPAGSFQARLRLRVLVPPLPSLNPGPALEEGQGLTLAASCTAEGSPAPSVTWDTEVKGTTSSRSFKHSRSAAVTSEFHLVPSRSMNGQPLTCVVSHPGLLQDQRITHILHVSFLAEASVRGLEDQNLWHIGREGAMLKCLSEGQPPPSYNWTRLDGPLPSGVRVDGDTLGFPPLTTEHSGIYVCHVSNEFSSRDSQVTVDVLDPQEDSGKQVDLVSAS

[8] = molecular target: T5, human nectin-4 protein expressed on the …; assay: flow cytometry, HEK 293 cells overexpressing the target
Description: as §1, §2

[9] = molecular target: T6, recombinant human Nectin-4-His protein; assay: ELISA, coated antigen
[10] = molecular target: T5, human nectin-4 protein expressed on the …; assay: cell-based or functional assay; remark: listed apart in the source

Binder	IC50, in vitro potency, HEK Cells + Nectin-4 [1] [pM]	Flow data [2]	Flow data [3]	Flow data [4]	Flow data [5]	IC50, in vitro potency, HEK Cells + Nectin-4 [6] [pM]	EC50 [7] [pM]	Flow data [8]	EC50 [9] [pM]	Cell kill IC50, HekNectin4 [10] [pM]	Cell kill IC50, MDA-MB468 [10] [pM]	Cell kill IC50, SKBR3 [10] [pM]
Enfortumab (antibody, V domains shown) VH: EVQLVESGGGLVQPGGSLRLSCAASGFTFSSYNMNWVRQAPGKGLEWVSYISSSSSTIYYADSVKGRFTISRDNAKNSLSLQMNSLRDEDTAVYYCARAYYYGMDVWGQGTTVTVSS VL: DIQMTQSPSSVSASVGDRVTITCRASQGISGWLAWYQQKPGKAPKFLIYAASTLQSGVPSRFSGSGSGTDFTLTISSLQPEDFATYYCQQANSFPPTFGGGTKVEIKR	685	17100	20000	45500	3220	–	–	–	–	–	–	–
Nectin-4 7 E8H/7 E8L (recombinant chimeric antibody) (antibody, V domains shown) VH: QVQLKQSGPGLVQPSQSLSITCTVSGFSLATYGVHWVRQSPGKGLEWLGVIWSGGSTDYNAAFISRLSISKDNSKSQVFFKMNSLQADDTAIYYCARNSHWYFDVWGTGTTVTVSS VL: DIVMTQSQKFMSTSVGDRVSVTCKASQNVVTNVAWYQQKPGQSPKALIYSASYRYSGVPDRFTGSGSGTDFTLTISHVQSEDLAEYFCHQYNNYPYTFGGGTKLEIK	–	–	10400	5970	279	890	361	9200	–	–	–	–
Nectin-4 3C12H/3C12L (recombinant chimeric antibody) (antibody, V domains shown) VH: QVQLKQSGPGLVQPSQSLSITCTVSGFSLTTYGVHWVRQSPGKGLEWLGVIWSGGNTDYNAAFISRLSISKDNSKSQVFFKMNSLQADDTAIYYCARMTHWYFDVWGTGTTVTVSS VL: DIVMTQSQKFMSTTVGDRVSITCKASQNVVTAVAWYQQKPGQSPKLLIYSASNRYTGVPDRFTGSGSGTDFTLTISYMQSEDLADYFCQQYSSYPLTFGAGTKLELK	–	–	10600	5060	328	919	282	8370	–	–	–	–
Nectin-4 12E11H/12E11L (recombinant chimeric antibody) (antibody, V domains shown, also called parental 12E11 clone) VH: QVQLKQSGPGLVQPSQSLSITCTVSGFSLTTYGVHWVRQSPGKGLEWLGVIWSGGSTDCNGAFISRLSIIKDNSKSQVFFKMNSLQADDTAIYYCARMTHWYFDVWGTGTTVTVSS VL: DIVMTQSQKFMSTTVGDRVSITCKASQNVNTAVAWYQQKPGQSPKLLIYSASYRYTGVPDRFTGSGSGTDFTLTISNMQSEDLADYFCQQYSNYPLTFGAGTKLELK	–	–	10400	1900	230	987	252	8620	–	–	–	–
Nectin-4 5D9H/5D9L (recombinant chimeric antibody) (antibody, V domains shown, also called Nectin-4 5D9 chimeric mAb) VH: QVQLKQSGPGLVQPSQSLSITCTVSGFSLTNYGVHWVRQSPGKGLEWLGVIWSGGSTDYNAAFVSRLSISRDNSKSQVFFKMNSLQADDTAIYYCARSGKWYYFDYWGQGTTLTVSS VL: DIQMTQSPASLSVSVGETVTITCRASENIYSNLAWYQQKQGKSPQLLVYAATNLADGVPSRFSGSGSGTQYSLKINSLQSEDFGSYYCQHFWGTPTFGGGTKLEIK	–	–	12600	2140	189	446	192	11200	191	207	1310	8470
